Data: patent US20240066131A1 (Protagonist Therapeutics, Inc., priority 2020, published 2024)
Each block holds one binder with its values, some of them ahead of it. Starred links: 1 amine or outer side, 2 acyl side, 3 side chain; linkers in the order of their positions; H or OH if unused. Non-standard residues stand in square brackets, D forms with d. Groups on a side chain read outwards from the residue. Primed or numbered codes have the meaning given here. *: point of attachment. N‑(CH2CH2C(Ph)2H)Gly = N-substituted glycine carrying a 3,3-diphenylpropyl group, O=C(CN(CCC(c1ccccc1)c1ccccc1)[*:1])[*:2]; Dip = N[C@H](C(=O)O)C(c1ccccc1)c1ccccc1; N(isopentyl)Gly′ = not defined here; Palmitoyl = CCCCCCCCCCCCCCCC(=O)*; β3hF = N[C@H](CC(=O)O)Cc1ccccc1; PEG4 = NCCOCCOCCOCCOCCC(=O)O; Isovaleryl = CC(C)CC(=O)*; Ahx = NCCCCCC(=O)O

Legend:
[1] = target: T1, human ferroportin (SLC40A1) fused in frame with GFP, stably expressed in HEK293 cells (human, UniProt Q9NP59 1-571); experiment: cell-based or functional assay
T1 sequence (looked up): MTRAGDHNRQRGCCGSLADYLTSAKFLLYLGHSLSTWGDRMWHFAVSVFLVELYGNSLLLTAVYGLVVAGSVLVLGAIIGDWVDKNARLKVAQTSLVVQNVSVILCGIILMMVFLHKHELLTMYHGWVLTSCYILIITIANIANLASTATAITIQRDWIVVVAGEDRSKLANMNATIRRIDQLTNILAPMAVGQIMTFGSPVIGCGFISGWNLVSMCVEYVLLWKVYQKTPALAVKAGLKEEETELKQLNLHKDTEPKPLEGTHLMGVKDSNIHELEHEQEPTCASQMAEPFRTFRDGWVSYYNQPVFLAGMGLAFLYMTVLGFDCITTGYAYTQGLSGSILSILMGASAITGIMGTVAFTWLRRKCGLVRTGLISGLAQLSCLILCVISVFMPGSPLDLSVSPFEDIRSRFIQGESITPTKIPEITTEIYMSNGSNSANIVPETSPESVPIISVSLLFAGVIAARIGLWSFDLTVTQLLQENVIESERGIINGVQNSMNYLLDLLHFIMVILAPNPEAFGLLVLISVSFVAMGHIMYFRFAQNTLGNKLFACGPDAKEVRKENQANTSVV

[2] = target: T1, human ferroportin (SLC40A1) fused in …; experiment: cell-based or functional assay; remark: listed apart in the source

B2: Isovaleric Acid-L-T-H-[Dpa]-P-L-I-[Lys(Ahx_Palm)]-L-NH2 (peptide)
peptide: Isovaleryl-LTH[Dip]PLIK([Ahx-Palmitoyl])L-NH2
SMILES: CCCCCCCCCCCCCCCC(=O)NCCCCCC(=O)NCCCC[C@H](NC(=O)[C@@H](NC(=O)[C@H](CC(C)C)NC(=O)[C@@H]1CCCN1C(=O)[C@@H](NC(=O)[C@H](Cc1c[nH]cn1)NC(=O)[C@@H](NC(=O)[C@H](CC(C)C)NC(=O)CC(C)C)[C@@H](C)O)C(c1ccccc1)c1ccccc1)[C@@H](C)CC)C(=O)N[C@@H](CC(C)C)C(N)=O
FPN IC50 [1]: 342 nM

B3: Isovaleric Acid-E-T-[N-(CH2CH2-imidazol4-yl)Gly]-[Dpa]-P-A-I-[Lys(Ahx_Palm)]-[bhPhe]-NH2 (peptide)
peptide: Isovaleryl-ET[N‑(CH2CH2-imidazol4-yl)Gly][Dip]PAIK([Ahx-Palmitoyl])[β3hF]-NH2
FPN EC50 [2]: > 3000 nM

B5: Isovaleric Acid-L-T-H-[Dpa]-P-A-I-[Lys(Ahx_Palm)]-L-NH2 (peptide)
peptide: Isovaleryl-LTH[Dip]PAIK([Ahx-Palmitoyl])L-NH2
SMILES: CCCCCCCCCCCCCCCC(=O)NCCCCCC(=O)NCCCC[C@H](NC(=O)[C@@H](NC(=O)[C@H](C)NC(=O)[C@@H]1CCCN1C(=O)[C@@H](NC(=O)[C@H](Cc1c[nH]cn1)NC(=O)[C@@H](NC(=O)[C@H](CC(C)C)NC(=O)CC(C)C)[C@@H](C)O)C(c1ccccc1)c1ccccc1)[C@@H](C)CC)C(=O)N[C@@H](CC(C)C)C(N)=O
FPN IC50 [1]: 169 nM

B6: Isovaleric Acid-E-T-H-[Dpa]-P-A-I-[Lys(Ahx_Palm)]-L-NH2 (peptide)
peptide: Isovaleryl-ETH[Dip]PAIK([Ahx-Palmitoyl])L-NH2
SMILES: CCCCCCCCCCCCCCCC(=O)NCCCCCC(=O)NCCCC[C@H](NC(=O)[C@@H](NC(=O)[C@H](C)NC(=O)[C@@H]1CCCN1C(=O)[C@@H](NC(=O)[C@H](Cc1c[nH]cn1)NC(=O)[C@@H](NC(=O)[C@H](CCC(=O)O)NC(=O)CC(C)C)[C@@H](C)O)C(c1ccccc1)c1ccccc1)[C@@H](C)CC)C(=O)N[C@@H](CC(C)C)C(N)=O
FPN IC50 [1]: 82 nM

B8: Isovaleric Acid-E-T-H-[Dpa]-P-A-I-[Lys(Ahx_Palm)]-[N-(CH2CH2Ph)Gly]-NH2 (peptide)
peptide: Isovaleryl-ETH[Dip]PAIK([Ahx-Palmitoyl])[N‑(CH2CH2Ph)Gly]-NH2
FPN EC50 [2]: 31.9 nM

B9: Isovaleric Acid-E-T-H-[Dpa]-P-[Lys(1PEG2_1PEG2_Ahx_C18_Diacid)]-[bhPhe]-NH2 (peptide)
peptide: XETHXPXX
modifications: N-term Isovaleric Acid; Dpa4; Lys(1PEG2_1PEG2_Ahx_C18_Diacid)6; bhPhe7; C-term NH2
FPN IC50 [1]: 367 nM

B13: Isovaleric Acid-[Lys(Ahx_Palm)]-T-H-[Dpa]-P-A-I-[(D)Lys]-[bhPhe]-NH2; 2 (peptide)
peptide: Isovaleryl-K([Ahx-Palmitoyl])TH[Dip]PAI[dK][β3hF]-NH2
SMILES: CCCCCCCCCCCCCCCC(=O)NCCCCCC(=O)NCCCC[C@H](NC(=O)CC(C)C)C(=O)N[C@H](C(=O)N[C@@H](Cc1c[nH]cn1)C(=O)N[C@H](C(=O)N1CCC[C@H]1C(=O)N[C@@H](C)C(=O)N[C@H](C(=O)N[C@H](CCCCN)C(=O)N[C@H](CC(N)=O)Cc1ccccc1)[C@@H](C)CC)C(c1ccccc1)c1ccccc1)[C@@H](C)O
FPN IC50 [1]: 654 nM

B14: Isovaleric Acid-[Lys(Ahx_Palm)]-T-H-[Dpa]-P-A-I-[(D)Lys]-[bhPhe]-NH2; 1 (peptide)
peptide: Isovaleryl-K([Ahx-Palmitoyl])TH[Dip]PAI[dK][β3hF]-NH2
SMILES: CCCCCCCCCCCCCCCC(=O)NCCCCCC(=O)NCCCC[C@H](NC(=O)CC(C)C)C(=O)N[C@H](C(=O)N[C@@H](Cc1c[nH]cn1)C(=O)N[C@H](C(=O)N1CCC[C@H]1C(=O)N[C@@H](C)C(=O)N[C@H](C(=O)N[C@H](CCCCN)C(=O)N[C@H](CC(N)=O)Cc1ccccc1)[C@@H](C)CC)C(c1ccccc1)c1ccccc1)[C@@H](C)O
FPN IC50 [1]: 598 nM

B15: Ac-[Lys(Ahx_Palm)]-T-H-[Dpa]-P-A-I-[(D)Lys]-[bhPhe]-NH2 (peptide)
peptide: Ac-K([Ahx-Palmitoyl])TH[Dip]PAI[dK][β3hF]-NH2
SMILES: CCCCCCCCCCCCCCCC(=O)NCCCCCC(=O)NCCCC[C@H](NC(C)=O)C(=O)N[C@H](C(=O)N[C@@H](Cc1c[nH]cn1)C(=O)N[C@H](C(=O)N1CCC[C@H]1C(=O)N[C@@H](C)C(=O)N[C@H](C(=O)N[C@H](CCCCN)C(=O)N[C@H](CC(N)=O)Cc1ccccc1)[C@@H](C)CC)C(c1ccccc1)c1ccccc1)[C@@H](C)O
FPN IC50 [1]: > 3000 nM

B17: Isovaleric Acid-E-T-H-[Dpa]-P-A-[N-(isopenty1)Gly]-[Lys(Ahx_Palm)]-[bhPhe]-NH2 (peptide)
peptide: Isovaleryl-ETH[Dip]PA[N(isopentyl)Gly′]K([Ahx-Palmitoyl])[β3hF]-NH2
FPN EC50 [2]: 13 nM

B18: Isovaleric Acid-E-T-H-[Dpa]-P-[N-(Et)Gly]-I-[Lys(Ahx_Palm)]-[bhPhe]-NH2 (peptide)
peptide: Isovaleryl-ETH[Dip]P[N(Et)Gly]IK([Ahx-Palmitoyl])[β3hF]-NH2
FPN EC50 [2]: 65.9 nM

The next lines start with the values.

FPN IC50 [1]: 37.4 nM
B1: Isovaleric Acid-E-T-H-[Dpa]-P-L-I-[Lys(Ahx_Palm)]-L-NH2 (peptide)
peptide: Isovaleryl-ETH[Dip]PLIK([Ahx-Palmitoyl])L-NH2
SMILES: CCCCCCCCCCCCCCCC(=O)NCCCCCC(=O)NCCCC[C@H](NC(=O)[C@@H](NC(=O)[C@H](CC(C)C)NC(=O)[C@@H]1CCCN1C(=O)[C@@H](NC(=O)[C@H](Cc1c[nH]cn1)NC(=O)[C@@H](NC(=O)[C@H](CCC(=O)O)NC(=O)CC(C)C)[C@@H](C)O)C(c1ccccc1)c1ccccc1)[C@@H](C)CC)C(=O)N[C@@H](CC(C)C)C(N)=O

FPN IC50 [1]: 1690 nM
B4: Isovaleric Acid-E-T-H-[Dpa]-P-[Lys(1PEG2_1PEG2_IsoGlu_C18_Diacid)]-[bhPhe]-NH2 (peptide)
peptide: XETHXPXX
modifications: N-term Isovaleric Acid; Dpa4; Lys(1PEG2_1PEG2_IsoGlu_C18_Diacid)6; bhPhe7; C-term NH2

FPN IC50 [1]: 1580 nM
B7: Isovaleric Acid-L-T-H-[Dpa]-P-A-I-[Lys(Ahx_Palm)]-[bhPhe]-NH2 (peptide)
peptide: Isovaleryl-LTH[Dip]PAIK([Ahx-Palmitoyl])[β3hF]-NH2
SMILES: CCCCCCCCCCCCCCCC(=O)NCCCCCC(=O)NCCCC[C@H](NC(=O)[C@@H](NC(=O)[C@H](C)NC(=O)[C@@H]1CCCN1C(=O)[C@@H](NC(=O)[C@H](Cc1c[nH]cn1)NC(=O)[C@@H](NC(=O)[C@H](CC(C)C)NC(=O)CC(C)C)[C@@H](C)O)C(c1ccccc1)c1ccccc1)[C@@H](C)CC)C(=O)N[C@H](CC(N)=O)Cc1ccccc1

FPN EC50 [2]: > 3000 nM
B10: Isovaleric Acid-E-T-H-[N-(CH2CH2C(Ph)2H)Gly]-P-A-I-[Lys(Ahx_Palm)]-[bhPhe]-NH2 (peptide)
peptide: Isovaleryl-ETH[N‑(CH2CH2C(Ph)2H)Gly]PAIK([Ahx-Palmitoyl])[β3hF]-NH2

FPN IC50 [1]: 1270 nM
B11: Isovaleric Acid-L-T-H-[Dpa]-P-L-I-[Lys(Ahx_Palm)]-[bhPhe]-NH2 (peptide)
peptide: Isovaleryl-LTH[Dip]PLIK([Ahx-Palmitoyl])[β3hF]-NH2
SMILES: CCCCCCCCCCCCCCCC(=O)NCCCCCC(=O)NCCCC[C@H](NC(=O)[C@@H](NC(=O)[C@H](CC(C)C)NC(=O)[C@@H]1CCCN1C(=O)[C@@H](NC(=O)[C@H](Cc1c[nH]cn1)NC(=O)[C@@H](NC(=O)[C@H](CC(C)C)NC(=O)CC(C)C)[C@@H](C)O)C(c1ccccc1)c1ccccc1)[C@@H](C)CC)C(=O)N[C@H](CC(N)=O)Cc1ccccc1

FPN IC50 [1]: 1490 nM
B12: Isovaleric Acid-E-T-H-[Dpa]-P-d[Lys(1PEG2_1PEG2_IsoGlu_C18_Diacid)]-[bhPhe]-NH2 (peptide)
peptide: XETHXPXX
modifications: N-term Isovaleric Acid; Dpa4; d[Lys(1PEG2_1PEG2_IsoGlu_C18_Diacid)]6; bhPhe7; C-term NH2

FPN EC50 [2]: 32.7 nM
B16: Isovaleric Acid-E-T-H-[Dpa]-P-A-I-[Lys(2PEG4_Palm)]-[bhPhe]-NH2 (peptide)
peptide: Isovaleryl-ETH[Dip]PAIK([PEG4-Palmitoyl])[β3hF]-NH2
SMILES: CCCCCCCCCCCCCCCC(=O)NCCOCCOCCOCCOCCC(=O)NCCCC[C@H](NC(=O)[C@@H](NC(=O)[C@H](C)NC(=O)[C@@H]1CCCN1C(=O)[C@@H](NC(=O)[C@H](Cc1c[nH]cn1)NC(=O)[C@@H](NC(=O)[C@H](CCC(=O)O)NC(=O)CC(C)C)[C@@H](C)O)C(c1ccccc1)c1ccccc1)[C@@H](C)CC)C(=O)N[C@H](CC(N)=O)Cc1ccccc1

FPN IC50 [1]: 86.8 nM
B19: Isovaleric Acid-E-T-H-[Dpa]-P-d[Lys(1PEG2_1PEG2_Ahx_C18_Diacid)]-[bhPhe]-NH2 (peptide)
peptide: XETHXPXX
modifications: not fully specified; N-term Isovaleric Acid; Dpa4; d[Lys(1PEG2_1PEG2_Ahx_C18_Diacid)]6; bhPhe7; C-term NH2
